1 molecule from doi:10.1101/2020.08.05.236513 can be followed below.

This experiment concerns the target H-2 I-A^b class II MHC molecule (mouse (endogenous in LB27.4)). The experiment is described as follows: radioligand binding.

B1: 14-mer N-acetylated P. merdae β-hex peptide (peptide)
peptide: Ac-KWDYRESRVWVNDQ-NH2
Molecule B1 gave a fold lower binding than the P. goldsteinii epitope of 3 fold.
